Data set [1] has as its system VchCAST RNA-guided transposition machinery (E. coli BL21(DE3) host, lacZ target). As to the kind of experiment: relative integration efficiency (T-LR orientation) vs wild-type transposon end (log2 (normalized fold change)); transposon end mutated: left end; higher = more efficient transposition. The method, boiled down: (§1)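 Barcoded pools of 1549 left-end or 1849 right-end transposon variants were cloned into a pUC57 mini-transposon donor. Each pool was co-transformed with a T7-driven effector plasmid (CRISPR array, tniQ-cas8-cas7-cas6, tnsA-tnsB-tnsC) into E. coli BL21(DE3) and plated with 0.1 mM IPTG at 37°C for 18 h. Input plasmids and genomic integration junctions were PCR-amplified and Illumina-sequenced, with two biological output replicates and four wild-type barcodes as reference. Relative integration efficiency is output/input barcode abundance fold change, normalised to wild-type barcodes and log-transformed.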

For data set [2] the test system is unchanged. As to the kind of experiment: relative integration efficiency (T-RL orientation) vs wild-type transposon end (log2 (normalized fold change)); transposon end mutated: left end; higher = more efficient transposition. The method, boiled down: as §1

± gives the standard deviation of the averaged measurements.

In the case of “AATGTTGTTGATGCAACCATAAAGTGATATTTAATAATTATTTATAATCAGCAACTTAACCACAAAACAACCATATATTGATATCTCACAACCACCAACGCCTGGTCGCGGGGGTGTCCGATCTGATTTCAGCAAAACTACTGCAGTAAGAA”, the “relative integration efficiency (log2)” value in data set [1] was -0.813 ± 1.4; in data set [2] it was -2.63 ± 0.74.

With “AATGTTGTTGATGCAACCATAAAGTGATATTTAATAATTATTTATAATCAGCAACTTAACCACAAAACAACCATATATTGATATCTCACAACCATAAGTTGATATTTTTGTGAATCGAGTATTTCAGCAAAACTACTGCAGTAAGAAAGTTA”, the “relative integration efficiency (log2)” value in data set [1] is -1.81 ± 1.5; in data set [2] it was -3.63 ± 0.88.

Take “AATGTTGTTGATGCAACCATAAAGTGATATTTAATAATTATTTATAATCAGCAACTTAACCACAAAACAACCATATATTGATATCTCACACAACCATAAGTTGATATTTTTGTGAATCGAGTATTTCAGCAAAACTACTGCAGTAAGAAAGT”: the “relative integration efficiency (log2)” value in data set [1] is -1.4 ± 0.91; in data set [2], -3.26 ± 0.94.

Turning to “AATGTTGTTGATGCAACCATAAAGTGATATTTAATAATTATTTATAATCAGCAACTTAACCACAAAACAACCATATATTGATATCTCACACCCACCAACGCCTGGTCGCGGGGGTGTCCGATCTGATTTCAGCAAAACTACTGCAGTAAGAA”, the “relative integration efficiency (log2)” value in data set [1] is -1.23 ± 1.7; in data set [2], -2.48 ± 0.87.

“AATGTTGTTGATGCAACCATAAAGTGATATTTAATAATTATTTATAATCAGCAACTTAACCACAAAACAACCATATATTGATATCTCACCAACCATAAGTTGATATTTTTGTGAATCGAGTATTTCAGCAAAACTACTGCAGTAAGAAAGTT”: the “relative integration efficiency (log2)” value is -2.01 ± 2.7 in data set [1] and -3.37 ± 0.94 in data set [2].

For the sequence “AATGTTGTTGATGCAACCATAAAGTGATATTTAATAATTATTTATAATCAGCAACTTAACCACAAAACAACCATATATTGATATCTCACCCCCACCAACGCCTGGTCGCGGGGGTGTCCGATCTGATTTCAGCAAAACTACTGCAGTAAGAA”, the “relative integration efficiency (log2)” value in data set [1] was -1.5 ± 1.8; in data set [2] it was -2.66 ± 0.95.

For the sequence “AATGTTGTTGATGCAACCATAAAGTGATATTTAATAATTATTTATAATCAGCAACTTAACCACAAAACAACCATATATTGATATCTCCAACCATAAGTTGATATTTTTGTGAATCGAGTATTTCAGCAAAACTACTGCAGTAAGAAAGTTAC”, the “relative integration efficiency (log2)” value in data set [1] is -1.44 ± 1.2; in data set [2], -3.71 ± 1.5.

Take “AATGTTGTTGATGCAACCATAAAGTGATATTTAATAATTATTTATAATCAGCAACTTAACCACAAAACAACCATATATTGATATCTCCACCCCACCAACGCCTGGTCGCGGGGGTGTCCGATCTGATTTCAGCAAAACTACTGCAGTAAGAA”: the “relative integration efficiency (log2)” value in data set [1] is -0.685 ± 1.1; in data set [2], -2.45 ± 0.85.

Take “AATGTTGTTGATGCAACCATAAAGTGATATTTAATAATTATTTATAATCAGCAACTTAACCACAAAACAACCATATATTGATCGAGACACCCCACCAACGCCTGGTCGCGGGGGTGTCCGATCTGATTTCAGCAAAACTACTGCAGTAAGAA”: the results for the “relative integration efficiency (log2)” value in data set [1] and in data set [2] were -2.14 ± 1.3 and -3.99 ± 1.6, respectively.

“AATGTTGTTGATGCAACCATAAAGTGATATTTAATAATTATTTATAATCAGCAACTTAACCACAAAACAACCATATATTGCGCGAGACACCCCACCAACGCCTGGTCGCGGGGGTGTCCGATCTGATTTCAGCAAAACTACTGCAGTAAGAA”: the “relative integration efficiency (log2)” value was -2.63 ± 0.53 in data set [1] and -4.62 ± 1.1 in data set [2].

As to “AATGTTGTTGATGCAACCATAAAGTGATATTTAATAATTATTTATAATCAGCAACTTAACCACAAAACAACCATATATTTCGCGAGACACCCCACCAACGCCTGGTCGCGGGGGTGTCCGATCTGATTTCAGCAAAACTACTGCAGTAAGAA”, the “relative integration efficiency (log2)” value in data set [1] was -4.98 ± 3.6; in data set [2] it was -6 ± 1.3.

For “AATGTTGTTGATGCAACCATAAAGTGATATTTAATAATTATTTATAATCAGCAACTTAACCACAAAACAACCATCGCGGTCGCGAGACACCCCACCAACGCCTGGTCGCGGGGGTGTCCGATCTGATTTCAGCAAAACTACTGCAGTAAGAA”, the results for the “relative integration efficiency (log2)” value in data set [1] and in data set [2] were -3.94 ± 2.1 and -7.35 ± 1.8, respectively.

Consider “AATGTTGTTGATGCAACCATAAAGTGATATTTAATAATTATTTATAATCAGCAACTTAACCACAAAACAACCCGCGCGGTCGCGAGACACCCCACCAACGCCTGGTCGCGGGGGTGTCCGATCTGATTTCAGCAAAACTACTGCAGTAAGAA”, for which the “relative integration efficiency (log2)” value in data set [1] is -4.43 ± 0.75; in data set [2] it was -7.91 ± 1.9.

On to “AATGTTGTTGATGCAACCATAAAGTGATATTTAATAATTATTTATAATCAGCAACTTAACCACAAAACACAACGCGCGGTCGCGAGACACCCCACCAACGCCTGGTCGCGGGGGTGTCCGATCTGATTTCAGCAAAACTACTGCAGTAAGAA”, for which the “relative integration efficiency (log2)” value in data set [1] was -4.26 ± 0.12; in data set [2] it was -6.99 ± 3.

“AATGTTGTTGATGCAACCATAAAGTGATATTTAATAATTATTTATAATCAGCAACTTAACCACAAAACACCCATAAATTGATAATTAACAAAAGTTGGTATTCAACTATAAAATGTGAATCGAGTATTTCAGCAAAACTACTGCAGTAAGAA”: the “relative integration efficiency (log2)” value was -1.11 ± 0.65 in data set [1] and -2.72 ± 0.87 in data set [2].

Turning to “AATGTTGTTGATGCAACCATAAAGTGATATTTAATAATTATTTATAATCAGCAACTTAACCACAAAACACCCATAAATTGATATTGCACAAAAGTTGGTATTCAACTATAAAATGTGAATCGAGTATTTCAGCAAAACTACTGCAGTAAGAA”, the “relative integration efficiency (log2)” value is -0.929 ± 1.3 in data set [1] and -3.12 ± 1 in data set [2].

For “AATGTTGTTGATGCAACCATAAAGTGATATTTAATAATTATTTATAATCAGCAACTTAACCACAAAACCCAACGCGCGGTCGCGAGACACCCCACCAACGCCTGGTCGCGGGGGTGTCCGATCTGATTTCAGCAAAACTACTGCAGTAAGAA”, the “relative integration efficiency (log2)” value in data set [1] was -2.9 ± 0.65; in data set [2], -7.08 ± 1.4.

“AATGTTGTTGATGCAACCATAAAGTGATATTTAATAATTATTTATAATCAGCAACTTAACCACAAAAGTTGGTATATAACTATAGAGACAAAACAACCATAAGTTGATATTTTTGTGAATCGAGTATTTCAGCAAAACTACTGCAGTAAGAA”: the figures for the “relative integration efficiency (log2)” value in data set [1] and in data set [2] were -1.8 ± 1.5 and -2.65 ± 1.1, respectively.

Regarding “AATGTTGTTGATGCAACCATAAAGTGATATTTAATAATTATTTATAATCAGCAACTTAACCACAAAATGTGAATCGACAACCATATATTGATATCTCACAAAACAACCATAAGTTGATATTTTGTATTTCAGCAAAACTACTGCAGTAAGAA”, the results for the “relative integration efficiency (log2)” value in data set [1] and in data set [2] were -3.12 ± 0.12 and -2.45 ± 0.87, respectively.

With “AATGTTGTTGATGCAACCATAAAGTGATATTTAATAATTATTTATAATCAGCAACTTAACCACAAAATGTGAATCGAGTATTCAACCATATATTGATATCTCACAAAACAACCATAAGTTGATATTTTTCAGCAAAACTACTGCAGTAAGAA”, the “relative integration efficiency (log2)” value in data set [1] was -2.89 ± 0.26; in data set [2], -4 ± 1.4.

As to “AATGTTGTTGATGCAACCATAAAGTGATATTTAATAATTATTTATAATCAGCAACTTAACCACAAAATGTGAATCGAGTATTTCAGCAAAACCAACCATATATTGATATCTCACAAAACAACCATAAGTTGATATTTTTACTGCAGTAAGAA”, the results for the “relative integration efficiency (log2)” value in data set [1] and in data set [2] were -3.73 ± 1.1 and -4.28 ± 1, respectively.

“AATGTTGTTGATGCAACCATAAAGTGATATTTAATAATTATTTATAATCAGCAACTTAACCACAAAATGTGAATCGAGTATTTCAGCAAAACTACTGCAGTAAGAATCAACCATATATTGATATCTCACAAAACAACCATAAGTTGATATTT”: the figures for the “relative integration efficiency (log2)” value in data set [1] and in data set [2] were -5.03 ± 3.6 and -5.36 ± 1.6, respectively.

Turning to “AATGTTGTTGATGCAACCATAAAGTGATATTTAATAATTATTTATAATCAGCAACTTAACCACAAAATGTGAATCGAGTATTTCAGCAAAACTACTGCAGTACAACCATATATTGATATCTCACAAAACAACCATAAGTTGATATTTTAGAA”, the entries for the “relative integration efficiency (log2)” value in data set [1] and in data set [2] were -3.82 ± 1.3 and -6.01 ± 0.9, respectively.

As for “AATGTTGTTGATGCAACCATAAAGTGATATTTAATAATTATTTATAATCAGCAACTTAACCACAAAATGTGACAACCATATATTGATATCTCACAAAACAACCATAAGTTGATATTTTATCGAGTATTTCAGCAAAACTACTGCAGTAAGAA”, the “relative integration efficiency (log2)” value in data set [1] was -4.36 ± 1.1; in data set [2], -4.95 ± 0.52.

Regarding “AATGTTGTTGATGCAACCATAAAGTGATATTTAATAATTATTTATAATCAGCAACTTAACCACAAACAACCATATATTGATATCTCAACAAAACAACCATAAGTTGATATTTTTGTGAATCGAGTATTTCAGCAAAACTACTGCAGTAAGAA”, the “relative integration efficiency (log2)” value was -1.17 ± 1.5 in data set [1] and -1.37 ± 0.49 in data set [2].

For “AATGTTGTTGATGCAACCATAAAGTGATATTTAATAATTATTTATAATCAGCAACTTAACCACAAACAACCATATATTGATATCTCACAAAACAACCATAAGTTGATATTTTATGTGAATCGAGTATTTCAGCAAAACTACTGCAGTAAGAA”, the “relative integration efficiency (log2)” value in data set [1] is -1.02 ± 0.3; in data set [2] it was -0.754 ± 0.26.

As to “AATGTTGTTGATGCAACCATAAAGTGATATTTAATAATTATTTATAATCAGCAACTTAACCACAAACAACCATATATTGATATCTCACAAAACAACCATAAGTTGATATTTTTGTGAATCGAGTATTTCAGCAAAACTACTGCAGTAAGAAA”, the “relative integration efficiency (log2)” value was -0.356 ± 0.049 in data set [1] and -0.248 ± 0.24 in data set [2].

On to “AATGTTGTTGATGCAACCATAAAGTGATATTTAATAATTATTTATAATCAGCAACTTAACCACAACAACCATATATTGATATCTCACAAAACAACCATAAGTTGATATTTTTGTGAATCGAGTATTTCAGCAAAACTACTGCAGTAAGAAAG”, for which the “relative integration efficiency (log2)” value is -2.53 ± 1.4 in data set [1] and -2.31 ± 0.76 in data set [2].

Regarding “AATGTTGTTGATGCAACCATAAAGTGATATTTAATAATTATTTATAATCAGCAACTTAACCACAACCACCAACGCGCGGTCGCGAGACACCCCACCAACGCCTGGTCGCGGGGGTGTCCGATCTGATTTCAGCAAAACTACTGCAGTAAGAA”, the “relative integration efficiency (log2)” value in data set [1] is -4.35 ± 3.3; in data set [2] it was -5.83 ± 1.9.

(Values after the supplement of paper PMC10201428.)
